Tests used:
[1] = target: T1, Cyno DV1/GV77 antigen, recombinant cynomolgus Vδ1 heterodimer (cynomolgus monkey); test: SPR, captured IgG, cyno DV1-GV77 flown over
T1 construct: also called cyno TRDV1; Cyno DV1-77; not shown: delta CDR3/J, TCR constant region, zipper and tag; the whole gamma chain GV77

[2] = target: T2, L1 (DV1-GV4), soluble human Vδ1/Vγ4 γδ TCR heterodimer in leucine zipper format (human); test: SPR, captured IgG, human DV1-GV4 flown over
T2 construct: Biotinylated in the DELFIA ranking; also called Antigen L1 (TRDV1/TRGV4); human DV1-GV4; not shown: gamma chain: Vγ4 (TRGV4) domain on a TCR constant region, leucine zipper, histidine tag
T2 sequence (main, as listed by the source): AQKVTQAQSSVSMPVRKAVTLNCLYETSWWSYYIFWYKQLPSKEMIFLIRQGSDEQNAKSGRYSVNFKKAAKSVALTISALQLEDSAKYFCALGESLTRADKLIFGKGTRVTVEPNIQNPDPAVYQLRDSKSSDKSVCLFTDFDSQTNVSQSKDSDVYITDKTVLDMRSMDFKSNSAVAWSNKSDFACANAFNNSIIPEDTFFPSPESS

[3] = target: T1, Cyno DV1/GV77 antigen, recombinant …; test: DELFIA ELISA, cyno antigen; heat map cell of the clone
[4] = target: T2, L1 (DV1-GV4), soluble human Vδ1/Vγ4 γδ …; test: DELFIA ELISA, 0.4 nM human TRDV1 antigen; heat map cell of the clone

T1 sequence (delta, as listed by the source limits assumed): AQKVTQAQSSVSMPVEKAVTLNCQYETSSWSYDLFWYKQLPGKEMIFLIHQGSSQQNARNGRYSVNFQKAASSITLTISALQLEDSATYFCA

B1: ADT1-4-8 (antibody, V domains shown)
VH: EVQLQQSGPGLVKPSQTLSLTCAISGDSVSSKSAAWNWIRQSPSRGLEWLGRTYYRSKWSTDYAASVKSRITINPDTSKNQLSLQLNSVTPEDTAVYYCARTWVGYADVWGQGTLVTVSS
VL: DIQMTQSPPALSASVGDRVTITCRASQDINDWLAWYQHKPGKAPKLLIYDASSLESGVPLRFSGSGSGTEFTLTISSLQPDDFATYYCQQKYSAPQVTFGQGTRLEIK
Q: How did the Kd [1] turn out when B1 was run?
A: 15.1 nM

Q: And the Kd [2]?
A: 0.541 nM

Q: And the “ELISA signal (heat map)” value [3]?
A: 139000

Q: And the “ELISA signal (heat map)” value [4]?
A: 42700
